{
  "source": "paper PMC4697752",
  "proteins": {"B1": {"name": "Matrix metalloproteinase-9 (MMP-9): mS38 (protein)", "parent chain": "MSLWQPLVLVLLVLGCCFAAPRQRQSTLVLFPGDLRTNLTDRQLAEEYLYRYGYTRVAEMRGESKSLGPALLLLQKQLSLPETGELDSATLKAMRTPRCGVPDLGRFQTFEGDLKWHHHNITYWIQNYSEDLPRAVIDDAFARAFALWSAVTPLTFTRVYSRDADIVIQFGVAEHGDGYPFDGKDGLLAHAFPPGPGIQGDAHFDDDELWSLGKGVVVPTRFGNADGAACHFPFIFEGRSYSACTTDGRSDGLPWCSTTANYDTDDRFGFCPSERLYTQDGNADGKPCQFPFIFQGQSYSACTTDGRSDGYRWCATTANYDRDKLFGFCPTRADSTVMGGNSAGELCVFPFTFLGKEYSTCTSEGRGDGRLWCATTSNFDSDKKWGFCPDQGYSLFLVAAHEFGHALGLDHSSVPEALMYPMYRFTEGPPLHKDDVNGIRHLYGPRPEPEPRPPTTTTPQPTAPPTVCPTGPPTVHPSERPTAGPTGPPSAGPTGPPTAGPSTATTVPLSPVDDACNVNIFDAIAEIGNQLYLFKDGKYWRFSEGRGSRPQGPFLIADKWPALPRKLDSVFEERLSKKLFFFSGRQVWVYTGASVLGPRRLDKLGLGADVAQVTGALRSGRGKMLLFSGRRLWRFDVKAQMVDPRSASEVDRMFPGVPLDTHDVFQYREKAYFCQDRFYWRVSSRSELNQVDQVGYVTYDILQCPED"}, "B2": {"name": "Matrix metalloproteinase-9 (MMP-9): mS38/N120S (protein)", "parent chain": "B1 parent chain"}, "B3": {"name": "Matrix metalloproteinase-9 (MMP-9): N120S (protein)", "parent chain": "B1 parent chain"}},
  "data": [
    {"assay": "secreted mCherry-tagged MMP-9, microplate reader", "settings": "glycan lost; control: wild type", "values": [
      {"protein": "B1", "expression_or_secretion": "no change"},
      {"protein": "B2", "expression_or_secretion": "decreases"},
      {"protein": "B3", "expression_or_secretion": "decreases"}
    ]}
  ]
}
